In article PMC4067995:

Molecular target: V1 (A3B3DF), the soluble subcomplex of TtATPase without peripheral stalks (Thermus thermophilus strain HB8) (UniProt Q56403)
Assay: native MS

Sequence of V1 (A3B3DF), the soluble subcomplex of TtATPase without peripheral stalks (Thermus thermophilus strain HB8) (Q56403 whole entry, chain 1 of 4): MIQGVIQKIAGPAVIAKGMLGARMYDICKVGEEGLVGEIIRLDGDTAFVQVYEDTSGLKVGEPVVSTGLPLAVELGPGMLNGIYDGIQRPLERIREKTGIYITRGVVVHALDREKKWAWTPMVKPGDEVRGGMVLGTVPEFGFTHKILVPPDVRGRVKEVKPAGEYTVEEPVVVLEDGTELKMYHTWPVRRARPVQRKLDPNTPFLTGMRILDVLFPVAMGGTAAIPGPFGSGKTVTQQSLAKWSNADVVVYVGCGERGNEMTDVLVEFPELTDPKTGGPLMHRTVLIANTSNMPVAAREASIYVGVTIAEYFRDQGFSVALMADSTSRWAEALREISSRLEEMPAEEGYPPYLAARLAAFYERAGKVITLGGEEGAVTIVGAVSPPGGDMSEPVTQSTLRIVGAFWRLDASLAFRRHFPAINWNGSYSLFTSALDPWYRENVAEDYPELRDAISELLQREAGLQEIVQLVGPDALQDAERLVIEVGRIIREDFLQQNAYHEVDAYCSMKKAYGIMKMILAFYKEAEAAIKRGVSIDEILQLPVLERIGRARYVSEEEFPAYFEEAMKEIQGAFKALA
Sequence of V1 (A3B3DF), the soluble subcomplex of TtATPase without peripheral stalks (Thermus thermophilus strain HB8) (Q56404 whole entry, chain 2 of 4, further chain): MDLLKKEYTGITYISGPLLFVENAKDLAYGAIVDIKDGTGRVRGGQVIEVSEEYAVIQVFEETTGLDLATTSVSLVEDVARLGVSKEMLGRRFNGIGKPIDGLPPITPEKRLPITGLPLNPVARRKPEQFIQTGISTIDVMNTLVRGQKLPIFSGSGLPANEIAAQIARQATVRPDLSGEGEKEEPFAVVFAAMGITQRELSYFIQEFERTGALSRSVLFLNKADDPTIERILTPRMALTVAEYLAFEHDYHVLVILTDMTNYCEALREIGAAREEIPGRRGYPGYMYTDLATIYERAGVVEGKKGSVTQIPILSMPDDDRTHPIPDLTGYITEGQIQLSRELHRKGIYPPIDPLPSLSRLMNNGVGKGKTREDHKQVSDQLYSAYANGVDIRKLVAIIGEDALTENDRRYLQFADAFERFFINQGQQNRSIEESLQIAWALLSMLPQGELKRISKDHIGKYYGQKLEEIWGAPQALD
Sequence of V1 (A3B3DF), the soluble subcomplex of TtATPase without peripheral stalks (Thermus thermophilus strain HB8) (O87880 whole entry, chain 3 of 4, further chain): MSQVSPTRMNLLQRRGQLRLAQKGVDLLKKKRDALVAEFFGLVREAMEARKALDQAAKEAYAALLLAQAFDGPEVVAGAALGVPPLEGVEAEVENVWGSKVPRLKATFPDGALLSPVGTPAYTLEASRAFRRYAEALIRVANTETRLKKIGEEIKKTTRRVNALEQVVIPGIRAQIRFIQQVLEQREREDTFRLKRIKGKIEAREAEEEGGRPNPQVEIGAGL
Sequence of V1 (A3B3DF), the soluble subcomplex of TtATPase without peripheral stalks (Thermus thermophilus strain HB8) (P74903 whole entry, chain 4 of 4, further chain): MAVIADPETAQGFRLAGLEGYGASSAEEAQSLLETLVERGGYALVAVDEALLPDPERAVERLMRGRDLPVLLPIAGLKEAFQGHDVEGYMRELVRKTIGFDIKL

- stoichiometry N: 2
Substance: peripheral EG stalk of TtATPase (from UniProt P74901 1-188) (complex)
